Experimental data taken from patent US20040254139, “Oligonucleotides antagonist for human tumor necrosis factor alpha (TNF-alpha)” (published 2004).

Assays:
[1] = target: T1, TNF-alpha (tumor necrosis factor alpha) (Homo sapiens, UniProt P01375 P01375:77-233); test: ELONA; affinity unchanged; still positive at 3 ng/ml; details: chain copies: 3
[2] = target: T1, TNF-alpha (tumor necrosis factor alpha); test: ELONA; affinity and inhibition activity stated unchanged; details: chain copies: 3

T1 sequence (P01375 77-233, one chain of several): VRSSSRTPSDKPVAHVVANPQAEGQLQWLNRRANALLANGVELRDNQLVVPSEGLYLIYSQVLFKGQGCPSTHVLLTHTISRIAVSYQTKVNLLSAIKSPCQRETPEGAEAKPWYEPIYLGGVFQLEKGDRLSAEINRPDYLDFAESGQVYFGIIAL

Binder | binding result [1] | binding result [2]
CCUCAUAGACUACUGUUAAGCCUCGAGG (ssRNA, 2'-NH2 pyrimidines (printed 2-amido)) [truncated amino-modified SEQ 25] | binds | 
GCUUAGCAAACGCACCGCACAGGCCCGCGG (ssRNA, 2'-F and 2'-NH2 pyrimidines (printed 2-fluorin and 2-amido)) [truncated modified SEQ 20] |  | binds
